For series [1], the system named is O=C(O)C(=O)Cc1ccccc1. As to the kind of experiment: Steady state kinetics by O2 depletion, HMS variant I236F. The series is classed as biochemical, Streptomyces coelicolor A3 (2). To be noted: other: Table 3, apparent, air saturation, pH 7.5, 25.0 °C. The protocol: (§1) Dioxygen consumption was continuously monitored using a micro-optode O2 sensor (Microtox TX3-AOT, Presens GmbH,Regensburg, Germany). Assays were generally performed at 25°C in air saturated 20 mM Tris/HCl buffer, pH 7.5 with enzyme concentrations of approx. 20 µM. To start the reaction, substrate aliquots were added from 5 mM stock solutions of the respective substrate to the desired end-concentration in a total volume of 500 µL. Initial rates were determined by linear regression analysis using the initial, linear part of the O2 depletion curve. O2 consumption rates from blanks that contained substrate in the absence of enzyme were subtracted as necessary. Specific activities were obtained by relating measured rates of O2 depletion to the protein derived Fe(II) content in the assay.
(§2) Kinetic analysis was performed via measuring O2 depletion. Kinetic parameters are apparent, as measurements were performed at air saturation. Product analysis was performed via HPLC (method is outlined in Appendix B) and confirmed via GC-MS. It could be shown that the enzyme converts phenylpyruvate analogues as a whole cell system, when a substrate analogue (e.g. p-F-phenylpyruvate) was added to cultures of E.coli BL21 cells overexpressing HMS variant S221M_V223M_Y359A. The overexpression was induced with IPTG as described in Material and Methods. […]

The subject of series [2] is O=C(O)C(=O)Cc1ccccc1. As to the kind of experiment: Steady state kinetics by O2 depletion, HMS variant V223F. Particulars: other: Table 3, apparent, air saturation, pH 7.5, 25.0 °C. Format: biochemical, Streptomyces coelicolor A3 (2). How it is done: as §1, §2
In series [3] the target is T1, 4-hydroxymandelate synthase (Hms, HMS) from Streptomyces coelicolor A3 (2), wild type, SEQ ID No. 1 (Streptomyces coelicolor, UniProt Q9Z4X7).
T1 sequence (Q9Z4X7 1-371): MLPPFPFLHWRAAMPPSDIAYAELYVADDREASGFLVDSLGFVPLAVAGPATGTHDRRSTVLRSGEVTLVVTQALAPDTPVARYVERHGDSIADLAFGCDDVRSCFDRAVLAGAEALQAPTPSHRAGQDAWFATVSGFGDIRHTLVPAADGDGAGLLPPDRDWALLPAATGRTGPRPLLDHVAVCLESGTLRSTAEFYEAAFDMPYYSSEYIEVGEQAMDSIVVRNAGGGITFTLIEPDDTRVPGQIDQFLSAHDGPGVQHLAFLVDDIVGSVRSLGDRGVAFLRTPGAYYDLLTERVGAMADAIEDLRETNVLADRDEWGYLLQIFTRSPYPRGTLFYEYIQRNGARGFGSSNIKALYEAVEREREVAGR
Particulars: Table 2; apparent, air saturation (260 µM dioxygen), Tris buffer 20 mM pH 7.5, 25°C.

The subject of series [4] is O=C(O)C(=O)Cc1ccccc1. As to the kind of experiment: Steady state kinetics by O2 depletion, HMS variant S221M. The series is classed as biochemical, Streptomyces coelicolor A3 (2). To be noted: other: Table 3, apparent, air saturation, pH 7.5, 25.0 °C. How it is done: as §1, §2
Series [5] concerns O=C(O)C(=O)Cc1ccccc1. As to the kind of experiment: Steady state kinetics by O2 depletion, HMS variant V223M. Format: biochemical, Streptomyces coelicolor A3 (2). To be noted: other: Table 3, apparent, air saturation, pH 7.5, 25.0 °C. How it is done: as §1, §2
Series [6] concerns O=C(O)C(=O)Cc1ccccc1. Briefly: Steady state kinetics by O2 depletion, HMS variant V223W. The series is classed as biochemical, Streptomyces coelicolor A3 (2). To be noted: other: Table 3, apparent, air saturation, pH 7.5, 25.0 °C. How it is done: as §1, §2
The test system of series [7] is O=C(O)C(=O)Cc1ccccc1. As to the kind of experiment: Steady state kinetics by O2 depletion, HMS variant V223F Y359A. The series is classed as biochemical, Streptomyces coelicolor A3 (2). To be noted: other: Table 3, apparent, air saturation, pH 7.5, 25.0 °C. How it is done: as §1, §2
The test system of series [8] is O=C(O)C(=O)Cc1ccccc1. Briefly: Steady state kinetics by O2 depletion, HMS variant S221M_Y359A. Format: biochemical, Streptomyces coelicolor A3 (2). To be noted: other: Table 3, apparent, air saturation, pH 7.5, 25.0 °C. How it is done: as §1, §2
Series [9] has as its system O=C(O)C(=O)Cc1ccccc1. As to the kind of experiment: Steady state kinetics by O2 depletion, HMS variant Y359A. The series is classed as biochemical, Streptomyces coelicolor A3 (2). Particulars: other: Table 3, apparent, air saturation, pH 7.5, 25.0 °C. How it is done:
as §1, §2

Substrate in series [10]: COc1ccc(CC(=O)C(=O)O)cc1
As to the kind of experiment: purified protein, by the assay type. To be noted: other: Table 2, apparent, air saturation (260 µM dioxygen), Tris buffer 20 mM pH 7.5, 25°C.

Substrate in series [11]: Cc1ccc(CC(=O)C(=O)O)cc1
Briefly: purified protein, by the assay type. Particulars: other: Table 2, apparent, air saturation (260 µM dioxygen), Tris buffer 20 mM pH 7.5, 25°C.

Substrate in series [12]: O=C(O)C(=O)Cc1ccc(F)cc1
Briefly: purified protein, by the assay type. To be noted: other: Table 2, apparent, air saturation (260 µM dioxygen), Tris buffer 20 mM pH 7.5, 25°C.

Substrate in series [13]: O=C(O)C(=O)Cc1ccc([N+](=O)[O-])cc1
As to the kind of experiment: purified protein, by the assay type. To be noted: other: Table 2, apparent, air saturation (260 µM dioxygen), Tris buffer 20 mM pH 7.5, 25°C.

Substrate in series [14]: O=C(O)C(=O)Cc1ccccc1
Briefly: purified protein, by the assay type. To be noted: other: Table 3; apparent, air saturation, O2 depletion; pH 7.5; 25.0 °C.

Data on ten molecules can be found in patent EP2574667A1, “Enzyme variants” (Technische Universität Graz, priority 2011, dated 2013).

In the case of “4-hydroxymandelate synthase (HMS) from Streptomyces coelicolor A3 (2), variant I236F (Streptomyces coelicolor A3(2); I236F)”, in the series with O=C(O)C(=O)Cc1ccccc1 [1], the Km was 2000 µM and the kcat came to 0.9 s⁻¹.

In the case of “4-hydroxymandelate synthase (HMS) from Streptomyces coelicolor A3 (2), variant V223F, SEQ ID No. 2 (Streptomyces coelicolor A3(2); V223F)”, in the series on O=C(O)C(=O)Cc1ccccc1 [2], the Km is 27 µM and the turnover number (kcat) came out at 1.1 s⁻¹.

Consider `COc1ccc(CC(=O)C(=O)[O-])cc1.[Na+]`, for which the turnover number (kcat) in series [3] came out at 0.96 ± 0.12 s⁻¹.

Regarding “4-hydroxymandelate synthase (HMS) from Streptomyces coelicolor A3 (2), variant S221M, SEQ ID No. 6 (Streptomyces coelicolor A3(2); S221M)”, in the series on O=C(O)C(=O)Cc1ccccc1 [4], the Km was 330 µM and the kcat came to 1.9 s⁻¹.

For “4-hydroxymandelate synthase (HMS) from Streptomyces coelicolor A3 (2), variant V223M, SEQ ID No. 4 (Streptomyces coelicolor A3(2); V223M)”, in the series on O=C(O)C(=O)Cc1ccccc1 [5], the Km is 230 µM and the kcat was 1.9 s⁻¹.

As to “4-hydroxymandelate synthase (HMS) from Streptomyces coelicolor A3 (2), variant V223W, SEQ ID No. 3 (Streptomyces coelicolor A3(2); V223W)”, in the series on O=C(O)C(=O)Cc1ccccc1 [6], the Km stood at 230 µM and the kcat was determined as 0.5 s⁻¹.

Regarding “4-hydroxymandelate synthase (HMS) from Streptomyces coelicolor A3 (2), variant V223F Y359A (V223F_Y359A), SEQ ID No. 7 (Streptomyces coelicolor A3(2); V223F/Y359A)”, in the series with O=C(O)C(=O)Cc1ccccc1 [7], the Km stood at 1000 µM and the kcat amounted to 2.1 s⁻¹.

“4-hydroxymandelate synthase (HMS) from Streptomyces coelicolor A3 (2), variant S221M_Y359A, SEQ ID No. 8 (Streptomyces coelicolor A3(2); S221M/Y359A)”: in the series on O=C(O)C(=O)Cc1ccccc1 [8], the Km amounted to 240 µM and the catalytic constant (kcat) amounted to 1.1 s⁻¹.

Consider “4-hydroxymandelate synthase (HMS) from Streptomyces coelicolor A3 (2), variant Y359A, SEQ ID No. 5 (Streptomyces coelicolor A3(2); Y359A)”, for which, in the series with O=C(O)C(=O)Cc1ccccc1 [9], the Km was determined as 270 µM and the kcat came to 4.8 s⁻¹.

B1: 4-hydroxymandelate synthase (Hms, HMS) from Streptomyces coelicolor A3 (2), wild type, SEQ ID No. 1 (Streptomyces coelicolor A3(2)) (protein)
chain: MLPPFPFLHWRAAMPPSDIAYAELYVADDREASGFLVDSLGFVPLAVAGPATGTHDRRSTVLRSGEVTLVVTQALAPDTPVARYVERHGDSIADLAFGCDDVRSCFDRAVLAGAEALQAPTPSHRAGQDAWFATVSGFGDIRHTLVPAADGDGAGLLPPDRDWALLPAATGRTGPRPLLDHVAVCLESGTLRSTAEFYEAAFDMPYYSSEYIEVGEQAMDSIVVRNAGGGITFTLIEPDDTRVPGQIDQFLSAHDGPGVQHLAFLVDDIVGSVRSLGDRGVAFLRTPGAYYDLLTERVGAMADAIEDLRETNVLADRDEWGYLLQIFTRSPYPRGTLFYEYIQRNGARGFGSSNIKALYEAVEREREVAGR
In the case of B1, the Michaelis constant (Km) in series [10] came out at 160 ± 70 µM; in series [14], 350 µM. Moreover, the kcat came to 0.13 ± 0.02 s⁻¹ in series [11], 0.077 ± 0.004 s⁻¹ in series [12], 0.035 ± 0.007 s⁻¹ in [13] and 0.9 s⁻¹ in series [14].

A word on the Km: it is the substrate concentration at which the rate is half of its maximum. The term kcat denotes the number of substrate molecules converted per active site and unit of time at saturation.
